Source: the supplement of paper PMC9732359
± gives the uncertainty stated by the source.

Assay: protein stability index of a GFP-peptide fusion (yeast GPS) (PSI 1-4); higher = more stable; sorted into four equal gates, so the index is relative within each strain
Conditions: san1∆
Method in brief: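 Plasmids in a pooled yeast library fused tiled 17-residue yeast protein peptides downstream of GFP and also expressed Cherry. Mid-log cultures grown without leucine were sorted into four equal gates by GFP/Cherry fluorescence ratio. Each gate's plasmids were PCR-amplified and Illumina-sequenced, and reads were matched to strains by barcodes. The protein stability index is derived by multiplying each gate's read frequency by its gate number and summing the results.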

Sequence | protein stability index
FDVNNIDMHLIYGVEWL [YDL116W/NUP84] | 1.92 ± 0.074
FEAQIDSVEFIFQAKRN [RPN10] | 2.45 ± 0.13
FEETKLSTTPTKSNRRV [SIR4] | 2.73 ± 0.12
FENCYLEGNDIHALAAK [FAS1] | 2.88 ± 0.044
FEQKGSQTTTNDSKEES [YLR335W/NUP2] | 2.98 ± 0.11
FEYLATVMYQRRSKMNP [PRE4] | 2.6 ± 0.15
FEYSKYRPLTPSSEVYS [RRP6] | 2.87 ± 0.053
FFTNPNKKRPSSKKVFS [YOR098C/NUP1] | 3.06 ± 0.046
FGAKMSRTLILSILNEI [SIN4] | 1.36 ± 0.088
FGAKSDENKAGATSKPA [YJL041W/NSP1] | 3.44 ± 0.065
FGHLKLALPVFHIGYFK [RPO31] | 1.24 ± 0.13
FGINTNTTKTADTKAPT [YLR335W/NUP2] | 3.19 ± 0.07
FGKTVKDGPFYTGSMSL [RPC31] | 2.81 ± 0.086
FGQRAVLKFAAHTGATP [RPS0A] | 2.45 ± 0.11
FIANEGVHTGQFIYAGK [RPL2A] | 2.04 ± 0.27
FIENFLTNDTFEKKLSI [YML103C/NUP188] | 3.2 ± 0.18
FIKEIHKSIELISNLLF [YCS4] | 2.48 ± 0.052
FIMVKGCIPGNRKRIVT [RPL3] | 1.57 ± 0.2
FISSNDAFNMLSLTTVP [SNF6] | 2.31 ± 0.11
FIYDTEKNGGLGWDLDA [FAS2] | 3.31 ± 0.051
FKLDKDTSNWELSDSWR [YGL100W/SEH1] | 3.39 ± 0.037
FKRVSQTFEAKLHFKDT [NUT1] | 3.41 ± 0.053
FKVQIIELLSYLVEAPW [YML103C/NUP188] | 1.69 ± 0.21
FLFAPELGAINLHALSM [SWI1] | 2.49 ± 0.12
FLKLVLSESPVDFEKFE [SIN4] | 2.66 ± 0.07

Sequence | protein stability index
FLKVKGLVKQHLDSFNY [RET1] | 2.78 ± 0.29
FLNDVIPTTKNLRLLVE [DLS1] | 2.88 ± 0.081
FLRPTYPDLCSIYDKWT [RPN1] | 2.35 ± 0.069
FLSPYISTHLKTICNLL [IRR1] | 1.69 ± 0.1
FLSSFDDVLQTIITDCA [YJL039C/NUP192] | 2.03 ± 0.062
FMDETAVALAASDLVLI [SNU114] | 2.69 ± 0.11
FMLSDDEGMESIEMEEE [RRI2] | 3.38 ± 0.097
FNITDNGVRALFHSCTR [GRR1] | 1.09 ± 0.15
FNQFVDYTLQDIICEDS [RPB2] | 2.78 ± 0.053
FNTLVRIMSTRCMMAAQ [DIS3] | 1.61 ± 0.076
FNVDDVLKFTFTGEKPI [MED8] | 3.29 ± 0.048
FNYVAVGDVSNLPYLDE [QCR2] | 2.98 ± 0.13
FPQYKLTTFANQVMMDR [ARP7] | 2.03 ± 0.13
FQHILRLLNTNVDGNIK [RPS18A] | 2.83 ± 0.045
FQITLSSDDLQNCWSLI [SSN8] | 2.22 ± 0.062
FQLPTTCVSMAPIQLKI [RGR1] | 1.78 ± 0.06
FQNTNTRSALKLVRESE [QCR2] | 2.81 ± 0.088
FRNNKNDNYSSDMENDN [REC8] | 3.2 ± 0.17
FRSLFFRSYMDQEKKYG [RPB2] | 2.61 ± 0.078
FRVQSQSNYGIYSSDAQ [NUT1] | 1.8 ± 0.074
FSFGAATPSAKEASQED [YLR335W/NUP2] | 3.12 ± 0.055
FSFGAKANEKKESDESK [YJL041W/NSP1] | 3.52 ± 0.078
FSFSKSEEERKSSPISN [YOR098C/NUP1] | 2.41 ± 0.091
FSLLVKAEIPPEYAKVG [SIN4] | 2.52 ± 0.057
FSSNERYFFWLQEKNSG [RPN13] | 2.18 ± 0.076
